Experimental data as given in patent publication US20230140293A1.

Columns and labels:
Assay in all cases: cell-based or functional assay
[1] = molecular target: HIV-1 CH0505TF (CH505 transmitted/founder) Env on Env-pseudotyped virus produced in 293T cells (HIV-1)
[2] = molecular target: HIV-1 CH0505TF.N280D Env on Env-pseudotyped virus produced in 293T cells (HIV-1)
[3] = molecular target: HIV-1 CH0505TF.G458Y Env on Env-pseudotyped virus produced in 293T cells (HIV-1)
[4] = molecular target: HIV-1 CH0505TF.S365P Env on Env-pseudotyped virus produced in 293T cells (HIV-1)
[5] = molecular target: HIV-1 CH0505TF (CH505 transmitted/founder) Env on Env-pseudotyped virus produced in 293T cells (HIV-1); remark: listed apart in the source
[6] = molecular target: HIV-1 Env 426c.TM4 (S278R.G471S.N460D.N463D), Env-pseudotyped virus produced in 293S GnTI- cells (Man5-enriched) (HIV-1 clade C strain 426c)
[7] = molecular target: CH0505TF.gly4 Env, Env-pseudotyped virus produced in 293T cells (HIV-1)
[8] = molecular target: HIV-1 Env 426c.TM (N276D.N460D.N463D), Env-pseudotyped virus produced in 293T cells (HIV-1 clade C strain 426c)
[9] = molecular target: CH0505TF.gly3.197 Env, pseudotyped virus produced in 293S GnTI- cells (HIV-1)
[10] = molecular target: HIV-1 Env 426c.DM (N460D.N463D), Env-pseudotyped virus produced in 293T cells (HIV-1 clade C strain 426c)
[11] = molecular target: CH0505TF.gly3.461 Env, Env-pseudotyped virus produced in 293T cells (HIV-1)
[12] = molecular target: HIV-1 426c.TM (N276D/N460D/N463D) Env on Env-pseudotyped virus produced in 293s/GnTI-/- cells (Man5-enrichment) (HIV-1)
[13] = molecular target: CH0505TF.G458Y Env, Env-pseudotyped virus produced in 293T cells (HIV-1)
[14] = molecular target: HIV-1 426c.DM (N460D/N463D) Env on Env-pseudotyped virus produced in 293T cells (HIV-1)
[15] = molecular target: CH0505TF.gly3.276 Env, pseudotyped virus produced in 293S GnTI- cells (HIV-1)
[16] = molecular target: HIV-1 Env 426c.SM (N276D), Env-pseudotyped virus produced in 293T cells (HIV-1 clade C strain 426c)
[17] = molecular target: HIV-1 CH0505TF.gly3.197 Env on Env-pseudotyped virus produced in 293S/GnTI-/- cells (Man5-enrichment) (HIV-1)
[18] = molecular target: HIV-1 clade C strain 426c Env on Env-pseudotyped virus produced in 293T cells (HIV-1)
[19] = molecular target: HIV-1 426c.TM (N276D/N460D/N463D) Env on Env-pseudotyped virus produced in 293T cells (HIV-1)
[20] = molecular target: HIV-1 426c.SM (N276D) Env on Env-pseudotyped virus produced in 293s/GnTI-/- cells (Man5-enrichment) (HIV-1)
[21] = molecular target: CH0505.w4.3 Env, Env-pseudotyped virus produced in 293T cells (HIV-1)
[22] = molecular target: CH0505TF.G458Y Env, pseudotyped virus produced in 293S GnTI- cells (HIV-1)
[23] = molecular target: HIV-1 CH0505TF.gly4 Env on Env-pseudotyped virus produced in 293S/GnTI-/- cells (Man5-enrichment) (HIV-1)
[24] = molecular target: CH0505TF.gly3.276 Env, Env-pseudotyped virus produced in 293T cells (HIV-1)
[25] = molecular target: HIV-1 Env 426c.TM (N276D.N460D.N463D), Env-pseudotyped virus produced in 293S GnTI- cells (Man5-enriched) (HIV-1 clade C strain 426c)
[26] = molecular target: HIV-1 426c.DM (N460D/N463D) Env on Env-pseudotyped virus produced in 293s/GnTI-/- cells (Man5-enrichment) (HIV-1)
[27] = molecular target: HIV-1 CH0505TF Env on Env-pseudotyped virus produced in 293S/GnTI-/- cells (Man5-enrichment) (HIV-1)
[28] = molecular target: HIV-1 426c.SM (N276D) Env on Env-pseudotyped virus produced in 293T cells (HIV-1)
[29] = molecular target: HIV-1 clade C strain 426c Env on Env-pseudotyped virus produced in 293s/GnTI-/- cells (Man5-enrichment) (HIV-1)
[30] = molecular target: HIV-1 Env 426c, Env-pseudotyped virus produced in 293T cells (HIV-1 clade C strain 426c)
[31] = molecular target: HIV-1 CH0505TF.gly4 Env on Env-pseudotyped virus produced in 293T cells (HIV-1)
[32] = molecular target: CH0505TF.gly3.461 Env, pseudotyped virus produced in 293S GnTI- cells (HIV-1)
[33] = molecular target: HIV-1 CH0505TF.gly3.197 Env on Env-pseudotyped virus produced in 293T cells (HIV-1)
[34] = molecular target: CH0505TF.gly4 Env, pseudotyped virus produced in 293S GnTI- cells (HIV-1)
[35] = molecular target: HIV-1 Env 426c.SM (N276D), Env-pseudotyped virus produced in 293S GnTI- cells (Man5-enriched) (HIV-1 clade C strain 426c)
[36] = molecular target: CH0505TF Env, pseudotyped virus produced in 293S GnTI- cells (HIV-1)
[37] = molecular target: HIV-1 Env 426c.TM4 (S278R.G471S.N460D.N463D), Env-pseudotyped virus produced in 293T cells (HIV-1 clade C strain 426c)
[38] = molecular target: HIV-1 Env 426c, Env-pseudotyped virus produced in 293S GnTI- cells (Man5-enriched) (HIV-1 clade C strain 426c)
[39] = molecular target: HIV-1 Env 426c.DM (N460D.N463D), Env-pseudotyped virus produced in 293S GnTI- cells (Man5-enriched) (HIV-1 clade C strain 426c)
[40] = molecular target: CH0505TF.gly3.197 Env, Env-pseudotyped virus produced in 293T cells (HIV-1)
[41] = molecular target: CH0505TF Env, Env-pseudotyped virus produced in 293T cells (HIV-1)

Q: For VRC01 (antibody), which IC50 (µg/ml) in TZM-bl [1] is on record?
A: 0.1 µg/mL

Q: And the IC50 (µg/ml) in TZM-bl [2]?
A: > 25 µg/mL

Q: What about the IC50 (µg/ml) in TZM-bl [3] of the same substance?
A: > 25 µg/mL

Q: What about the IC50 (µg/ml) in TZM-bl [4] of the same substance?
A: 0.1 µg/mL

Q: And the IC50 (ug/ml) in TZM-bl cells [5]?
A: 0.09 µg/mL

Q: And the IC50 (µg/ml) in TZM-bl [6]?
A: 0.007 µg/mL

Q: And the IC50 (µg/ml) in TZM-bl [7]?
A: 0.002 µg/mL

Q: And the IC50 (µg/ml) in TZM-bl [8]?
A: 0.03 µg/mL

Q: What about the IC50 (µg/ml) in TZM-bl [9] of the same substance?
A: 0.009 µg/mL

Q: And the IC50 (µg/ml) in TZM-bl [10]?
A: 0.41 µg/mL

Q: What about the IC50 (µg/ml) in TZM-bl [11] of the same substance?
A: 1.98 µg/mL

Q: What about the ID50/IC50 in TZM-bl [12] of the same substance?
A: 0.015 µg/mL

Q: And the IC50 (µg/ml) in TZM-bl [13]?
A: > 25 µg/mL

Q: What about the ID50/IC50 in TZM-bl [14] of the same substance?
A: 0.41 µg/mL

Q: What about the IC50 (µg/ml) in TZM-bl [15] of the same substance?
A: 0.003 µg/mL

Q: And the IC50 (µg/ml) in TZM-bl [16]?
A: 0.39 µg/mL

Q: What about the IC50 (ug/ml) in TZM-bl cells [17] of the same substance?
A: 0.009 µg/mL

Q: What about the ID50/IC50 in TZM-bl [18] of the same substance?
A: 2.2 µg/mL

Q: What about the ID50/IC50 in TZM-bl [19] of the same substance?
A: 0.03 µg/mL

Q: And the ID50/IC50 in TZM-bl [20]?
A: 0.04 µg/mL

Q: And the IC50 (µg/ml) in TZM-bl [21]?
A: 0.05 µg/mL

Q: And the IC50 (µg/ml) in TZM-bl [22]?
A: 0.91 µg/mL

Q: What about the IC50 (ug/ml) in TZM-bl cells [23] of the same substance?
A: 0.001 µg/mL

Q: And the IC50 (µg/ml) in TZM-bl [24]?
A: 0.004 µg/mL

Q: What about the IC50 (µg/ml) in TZM-bl [25] of the same substance?
A: 0.015 µg/mL

Q: And the ID50/IC50 in TZM-bl [26]?
A: 0.04 µg/mL

Q: What about the IC50 (ug/ml) in TZM-bl cells [27] of the same substance?
A: 0.03 µg/mL

Q: And the ID50/IC50 in TZM-bl [28]?
A: 0.39 µg/mL

Q: And the ID50/IC50 in TZM-bl [29]?
A: 0.19 µg/mL

Q: And the IC50 (µg/ml) in TZM-bl [30]?
A: 2.2 µg/mL

Q: And the IC50 (ug/ml) in TZM-bl cells [31]?
A: 0.002 µg/mL

Q: And the IC50 (µg/ml) in TZM-bl [32]?
A: 0.015 µg/mL

Q: What about the IC50 (ug/ml) in TZM-bl cells [33] of the same substance?
A: 0.023 µg/mL

Q: What about the IC50 (µg/ml) in TZM-bl [34] of the same substance?
A: 0.001 µg/mL

Q: What about the IC50 (µg/ml) in TZM-bl [35] of the same substance?
A: 0.04 µg/mL

Q: What about the IC50 (µg/ml) in TZM-bl [36] of the same substance?
A: 0.03 µg/mL

Q: What about the IC50 (µg/ml) in TZM-bl [37] of the same substance?
A: 0.002 µg/mL

Q: And the IC50 (µg/ml) in TZM-bl [38]?
A: 0.19 µg/mL

Q: And the IC50 (µg/ml) in TZM-bl [39]?
A: 0.04 µg/mL

Q: And the IC50 (µg/ml) in TZM-bl [40]?
A: 0.023 µg/mL

Q: What about the IC50 (µg/ml) in TZM-bl [41] of the same substance?
A: 0.1 µg/mL

Q: How did the IC50 (µg/ml) in TZM-bl [1] turn out when VRC-CH31 (antibody) was run?
A: 0.03 µg/mL

Q: What about the IC50 (µg/ml) in TZM-bl [2] of the same substance?
A: > 25 µg/mL

Q: And the IC50 (µg/ml) in TZM-bl [3]?
A: < 0.01 µg/mL

Q: What about the IC50 (µg/ml) in TZM-bl [4] of the same substance?
A: 1.2 µg/mL

Q: What about the IC50 (µg/ml) in TZM-bl [6] of the same substance?
A: 0.01 µg/mL

Q: What about the IC50 (µg/ml) in TZM-bl [7] of the same substance?
A: 0.002 µg/mL

Q: And the IC50 (µg/ml) in TZM-bl [8]?
A: > 25 µg/mL

Q: And the IC50 (µg/ml) in TZM-bl [9]?
A: 0.01 µg/mL

Q: What about the IC50 (µg/ml) in TZM-bl [10] of the same substance?
A: 0.73 µg/mL

Q: And the IC50 (µg/ml) in TZM-bl [11]?
A: 0.09 µg/mL

Q: What about the ID50/IC50 in TZM-bl [12] of the same substance?
A: 1.6 µg/mL

Q: And the IC50 (µg/ml) in TZM-bl [13]?
A: 0.023 µg/mL

Q: What about the ID50/IC50 in TZM-bl [14] of the same substance?
A: 0.73 µg/mL

Q: And the IC50 (µg/ml) in TZM-bl [15]?
A: 0.001 µg/mL

Q: And the IC50 (µg/ml) in TZM-bl [16]?
A: > 25 µg/mL

Q: What about the ID50/IC50 in TZM-bl [18] of the same substance?
A: 0.62 µg/mL

Q: What about the ID50/IC50 in TZM-bl [19] of the same substance?
A: > 25 µg/mL

Q: What about the ID50/IC50 in TZM-bl [20] of the same substance?
A: 0.7 µg/mL

Q: And the IC50 (µg/ml) in TZM-bl [21]?
A: 0.05 µg/mL

Q: And the IC50 (µg/ml) in TZM-bl [22]?
A: 0.06 µg/mL

Q: What about the IC50 (µg/ml) in TZM-bl [24] of the same substance?
A: 0.002 µg/mL

Q: What about the IC50 (µg/ml) in TZM-bl [25] of the same substance?
A: 1.6 µg/mL

Q: What about the ID50/IC50 in TZM-bl [26] of the same substance?
A: 0.02 µg/mL

Q: What about the ID50/IC50 in TZM-bl [28] of the same substance?
A: > 25 µg/mL

Q: What about the ID50/IC50 in TZM-bl [29] of the same substance?
A: 0.04 µg/mL

Q: And the IC50 (µg/ml) in TZM-bl [30]?
A: 0.62 µg/mL

Q: What about the IC50 (µg/ml) in TZM-bl [32] of the same substance?
A: 0.007 µg/mL

Q: And the IC50 (µg/ml) in TZM-bl [34]?
A: 0.001 µg/mL

Q: And the IC50 (µg/ml) in TZM-bl [35]?
A: 0.7 µg/mL

Q: And the IC50 (µg/ml) in TZM-bl [36]?
A: 0.04 µg/mL

Q: And the IC50 (µg/ml) in TZM-bl [37]?
A: 0.15 µg/mL

Q: What about the IC50 (µg/ml) in TZM-bl [38] of the same substance?
A: 0.04 µg/mL

Q: And the IC50 (µg/ml) in TZM-bl [39]?
A: 0.02 µg/mL

Q: And the IC50 (µg/ml) in TZM-bl [40]?
A: 0.01 µg/mL

Q: What about the IC50 (µg/ml) in TZM-bl [41] of the same substance?
A: 0.03 µg/mL
